Laboratory results taken from the supplement of paper PMC9112550, “Optimization of the antimicrobial peptide Bac7 by deep mutational scanning” (BMC Biology, 2022).

Tested on: Escherichia coli TOP10
Test: shrunken log2 fold change of peptide-encoding DNA abundance (4.5 h post-induction vs induction); higher = less antimicrobial activity (less host growth inhibition)
Details: time post-induction: 4.5 h; library: site-saturation at positions 5, 18, 19, 20
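Also: peptides expressed intracellularly from a pBAD plasmid library in pooled LB shake-flask culture, induced with 0.3% L-arabinose, DNA abundance read by NGS, three biological replicates, DESeq2 with apeglm shrinkage.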

Sequence | shrunken log2 fold change
RRIRERPPRLPRPRPRPLVYPRP | -0.309
RRIRSRPPRLPRPRPRPIWFPRP | 0.112
RRIRWRPPRLPRPRPRPKDSPRP | 0.118
RRIRSRPPRLPRPRPRPPECPRP | 0.0423
RRIRTRPPRLPRPRPRPRNTPRP | -0.209
RRIRYRPPRLPRPRPRPKHPPRP | -0.155
RRIRERPPRLPRPRPRPPKFPRP | -0.0978
RRIRERPPRLPRPRPRPATWPRP | -0.014
RRIRGRPPRLPRPRPRPPDTPRP | 1
RRIRIRPPRLPRPRPRPFSVPRP | -0.248
RRIRDRPPRLPRPRPRPMKYPRP | 0.0311
RRIRARPPRLPRPRPRPGSGPRP | 0.576
RRIRMRPPRLPRPRPRPFCVPRP | 0.00978
RRIRDRPPRLPRPRPRPEWFPRP | 0.257
RRIRERPPRLPRPRPRPGGIPRP | 0.0836
RRIRPRPPRLPRPRPRPHQLPRP | 0.0761
RRIRKRPPRLPRPRPRPMIWPRP | -0.00177
RRIRVRPPRLPRPRPRPNSTPRP | -0.515
RRIRERPPRLPRPRPRPSEIPRP | -0.16
RRIRERPPRLPRPRPRPYREPRP | -0.00865
RRIRMRPPRLPRPRPRPLWSPRP | -0.0373

Sequence | shrunken log2 fold change
RRIRIRPPRLPRPRPRPMDNPRP | -0.096
RRIRDRPPRLPRPRPRPLMKPRP | -0.19
RRIRYRPPRLPRPRPRPQIVPRP | -0.342
RRIRKRPPRLPRPRPRPSTCPRP | -0.0517
RRIRCRPPRLPRPRPRPILKPRP | -0.263
RRIRDRPPRLPRPRPRPHELPRP | -0.124
RRIRFRPPRLPRPRPRPNTPPRP | -0.263
RRIRWRPPRLPRPRPRPLAWPRP | 0.474
RRIRTRPPRLPRPRPRPCAHPRP | -0.209
RRIRPRPPRLPRPRPRPTSCPRP | 0.193
RRIRPRPPRLPRPRPRPWESPRP | 0.0303
RRIRYRPPRLPRPRPRPSCCPRP | -0.472
RRIRLRPPRLPRPRPRPDNMPRP | -0.519
RRIRARPPRLPRPRPRPPSQPRP | 0.669
RRIRERPPRLPRPRPRPETFPRP | -0.0158
RRIRCRPPRLPRPRPRPVKIPRP | 0.108
RRIRGRPPRLPRPRPRPKHLPRP | 0.0257
RRIRWRPPRLPRPRPRPNFCPRP | 0.0758
RRIRLRPPRLPRPRPRPGQIPRP | 0.207
RRIRARPPRLPRPRPRPSVEPRP | 0.49
RRIRWRPPRLPRPRPRPSFQPRP | -0.284

Sequence | shrunken log2 fold change
RRIRIRPPRLPRPRPRPPAQPRP | 0.0916
RRIRNRPPRLPRPRPRPVPFPRP | 0.041
RRIRYRPPRLPRPRPRPGDNPRP | -0.0446
RRIRQRPPRLPRPRPRPWDRPRP | -0.127
RRIRFRPPRLPRPRPRPDEKPRP | -0.0935
RRIRMRPPRLPRPRPRPGVKPRP | 0.172
RRIRPRPPRLPRPRPRPFKYPRP | -0.0171
RRIRGRPPRLPRPRPRPTLRPRP | 0.793
RRIRCRPPRLPRPRPRPWNCPRP | -0.142
RRIRLRPPRLPRPRPRPMTNPRP | -0.0811
RRIRFRPPRLPRPRPRPMREPRP | 1.08
RRIRFRPPRLPRPRPRPCNEPRP | -0.0116
RRIRRRPPRLPRPRPRPYIHPRP | -0.794
RRIRSRPPRLPRPRPRPNTCPRP | -0.808
RRIRPRPPRLPRPRPRPQGHPRP | 0.05
RRIRWRPPRLPRPRPRPEPCPRP | 0.157
RRIRIRPPRLPRPRPRPWCPPRP | 0.0944
RRIRNRPPRLPRPRPRPAHQPRP | -0.108
RRIRFRPPRLPRPRPRPNWDPRP | -0.269
RRIRGRPPRLPRPRPRPKRGPRP | 0.919
RRIRWRPPRLPRPRPRPSDPPRP | 0.00652
